Data reported in paper PMC11733250, “Interplay of p23 with FKBP51 and their chaperone complex in regulating tau aggregation” (Nature Communications, 2025).

B3: FKBP51 (natural protein, UniProt Q13451 1-457, looked up)
chain: MTTDEGAKNNEESPTATVAEQGEDITSKKDRGVLKIVKRVGNGEETPMIGDKVYVHYKGKLSNGKKFDSSHDRNEPFVFSLGKGQVIKAWDIGVATMKKGEICHLLCKPEYAYGSAGSLPKIPSNATLFFEIELLDFKGEDLFEDGGIIRRTKRKGEGYSNPNEGATVEIHLEGRCGGRMFDCRDVAFTVGEGEDHDIPIGIDKALEKMQREEQCILYLGPRYGFGEAGKPKFGIEPNAELIYEVTLKSFEKAKESWEMDTKEKLEQAAIVKEKGTVYFKGGKYMQAVIQYGKIVSWLEMEYGLSEKESKASESFLLAAFLNLAMCYLKLREYTKAVECCDKALGLDSANEKGLYRRGEAQLLMNEFESAKGDFEKVLEVNPQNKAARLQISMCQKKAKEHNERDRRIYANMFKKFAEQDAKEEANKAMGKKTSEGVTNEKGTDSQAMEEEKPEGHV
notes: FKBP51, 51 kDa, with the FK1, FK2 and TPR domains; all three domains and residues 426-457 are spoken of, which fits the whole 457-residue protein; Used unlabeled or with 13C-methyl (Leu, Val) labels; also called free FKBP51; LV-labeled FKBP51; source: grown in LB or M9 medium, IPTG-induced; purified (His-trap, HRV 3C cut of the His-tag, size exclusion chromatography)

Legend:
Details in all cases: both partners purified
[1] = molecular target: T1, 441-residue human 2N4R tau (human, UniProt P10636-8 1-441); test: NMR titration; 1H-15N HSQC of 15N-labeled tau (20 or 30 µM); unlabeled p23 or p23 (1-119) added up to ten-fold molar excess; 50 mM NaP, 10 mM NaCl, 1 mM DTT, pH 6.8, 278 K
T1 construct: tau, human, 2N4R isoform, printed length 441 residues; Used unlabeled or 15N-labeled; source: grown in LB or M9 medium, IPTG-induced; purified (boiling, ammonium sulfate, Mono S ion exchange, reverse phase HPLC), lyophilized

FKBP51 = molecular target: B3; test: NMR titration; 1H-15N TROSY HSQC of deuterated 15N-labeled p23 (WT 40 µM, 1-119 25 µM, R88A R93A 40 µM); unlabeled FKBP51 added at equimolar to three-fold or five-fold molar excess; 25 mM HEPES, 10 mM KCl, 5 mM MgCl2, 1 mM DTT, pH 7.2, 303 K
[2] = molecular target: T1, 441-residue human 2N4R tau; test: cross-linking; p23:FKBP51:tau 1:1:1 (25 µM each), 1 mM DSS, 30 min at 25 °C; SDS-PAGE band above 220 kDa cut out, trypsin digest, mass spectrometry (pLink)

T1 sequence (P10636 other isoform, or with tags, fused parts or gaps): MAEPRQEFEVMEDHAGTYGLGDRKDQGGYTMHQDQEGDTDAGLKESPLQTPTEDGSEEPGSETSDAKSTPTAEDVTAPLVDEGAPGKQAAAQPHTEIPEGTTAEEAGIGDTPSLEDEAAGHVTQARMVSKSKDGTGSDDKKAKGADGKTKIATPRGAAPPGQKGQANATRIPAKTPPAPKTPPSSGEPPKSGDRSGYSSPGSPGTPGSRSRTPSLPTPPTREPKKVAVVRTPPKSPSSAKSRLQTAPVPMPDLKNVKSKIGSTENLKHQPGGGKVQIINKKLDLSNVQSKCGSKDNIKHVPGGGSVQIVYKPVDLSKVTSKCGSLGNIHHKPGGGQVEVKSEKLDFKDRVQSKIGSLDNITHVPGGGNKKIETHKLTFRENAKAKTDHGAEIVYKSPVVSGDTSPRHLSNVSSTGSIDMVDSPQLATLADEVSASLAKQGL

B1: p23 wild-type (human co-chaperone p23, 160 amino acids) (natural protein, UniProt Q15185 1-160, looked up)
chain: MQPASAKWYDRRDYVFIEFCVEDSKDVNVNFEKSKLTFSCLGGSDNFKHLNEIDLFHCIDPNDSKHKRTDRSILCCLRKGESGQSWPRLTKERAKLNWLSVDFNNWKDWEDDSDEDMSNFDRFSEMMNNMGGDEDVDLPEVDGADDDSQDSDDEKMPDLE
notes: p23, human, 160 amino acids: folded domain (residues 1-110) and disordered C-terminal tail (residues 111-160); Used unlabeled, 15N-labeled or deuterated/15N-labeled; also called p23 WT; full-length p23; source: grown in LB or M9 medium, IPTG-induced; purified (His-trap, thrombin cut of the His-tag, size exclusion chromatography)
- binding result [1]: binds

B2: truncated p23 (1-119) (domain or fragment, human, UniProt Q15185 1-119, looked up)
chain: MQPASAKWYDRRDYVFIEFCVEDSKDVNVNFEKSKLTFSCLGGSDNFKHLNEIDLFHCIDPNDSKHKRTDRSILCCLRKGESGQSWPRLTKERAKLNWLSVDFNNWKDWEDDSDEDMSN
notes: p23, human, residues 1-119; the terminal 41 residues are deleted; Made by site-directed mutagenesis; also called truncated (1–119) mutant p23; C-terminal deletion mutant of p23; source: grown in LB or M9 medium, IPTG-induced; purified (His-trap, thrombin cut of the His-tag, size exclusion chromatography)
- binding result (FKBP51): binds

Binder: B3
- binding result [2]: binds
